Measured values: publication PMC4499121
Residue numbers refer to the chain shown, from its start.

T1: Interleukin 10 receptor alpha chain, Fc fusion (human, UniProt Q13651 22-235)
T1 sequence: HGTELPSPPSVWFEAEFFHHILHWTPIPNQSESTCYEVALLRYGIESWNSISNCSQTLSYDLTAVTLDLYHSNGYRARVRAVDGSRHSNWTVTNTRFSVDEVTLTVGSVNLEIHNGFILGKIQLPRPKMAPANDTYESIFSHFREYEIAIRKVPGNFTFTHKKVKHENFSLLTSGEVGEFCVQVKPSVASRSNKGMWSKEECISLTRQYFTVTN

B1: cluster 1 Mutant 1 (ssRNA)
RNA: GGGAGAGAGGAAGAGGGAUGGGUAACACUCGAUUCUCCUAGCCCUCUAGAAAUUCCCCUCCCCGACGACUCGCUGAGAUCGAGA
modifications: DuraScribe IVT transcript (2'-F pyrimidines implied by the kit, not stated)
B2: cluster 1 Mutant 2 (ssRNA)
RNA: B1 RNA with G41U, U45G
modifications: DuraScribe IVT transcript (2'-F pyrimidines implied by the kit, not stated)

Tests used:
[1] = target: T1, Interleukin 10 receptor alpha chain, Fc …; test: double filter binding; text: mutant with highest change in affinity; Fig 3D legend gives that to Mutant 2; Binding buffer (composition and pH not given), 37 C, 5' 32P RNA with a range of protein concentrations, nitrocellulose/nylon double filter; Kd = protein concent
[2] = target: T1, Interleukin 10 receptor alpha chain, Fc …; test: double filter binding; improved relative to cluster 1 seed; Binding buffer (composition and pH not given), 37 C, 5' 32P RNA with a range of protein concentrations, nitrocellulose/nylon double filter; Kd = protein concent

| Binder | Kd [1] | binding result [2] |
| --- | --- | --- |
| B1 | 27 nM | – |
| B2 | – | binds |
